Measurements reported in article PMC11406360, “The enzymatic oxygen sensor cysteamine dioxygenase binds its protein substrates through their N-termini” (The Journal of Biological Chemistry, 2024).
“And” between values parts separate entries of the source, which are not always exact repeats. Identical values can stand only once. One block for each binder: values may come before it.

Experiments:
[1] = substrate: CC(C)C[C@H](NC(=O)CNC(=O)[C@H](CCCCN)NC(=O)[C@@H](N)CS)C(=O)N[C@@H](C)C(=O)N[C@@H](C)C(=O)N[C@@H](CC(C)C)C(=O)N1CCC[C@H]1C(=O)N[C@@H](Cc1c[nH]cn1)C(=O)N[C@@H](CO)C(=O)N[C@@H](CS)C(=O)N[C@@H](CC(C)C)C(=O)N[C@@H](CCC(=O)O)C(=O)N[C@@H](CCCNC(=N)N)C(N)=O; assay: LC-MS enzyme activity assay (Nt-cys sulfinylation by ADO); assay type: biochemical, human; conditions: other: Michaelis-Menten, stopped LC-MS assay, atmospheric O2, three independent experiments, pH 7.5
Experimental: (§1) […] Otherwise stated, the reaction buffer contained 50 mM Tris pH 7.5, 50 mM NaCl, and 5 mM TCEP. The reactions were quenched by mixing the sample 1:10 (peptide) or 1:5 (protein) with 1% formic acid (v/v).
(§2) Peptide and protein samples were injected onto a Chromolith RP-18 Endcapped HPLC Columns (100–2 mm; Merck) and Discovery BIO Wide Pore C5 HPLC Column (Supelco), respectively, heated to 40 °C and eluted at 0.3 ml/min using a gradient of 95% deionized water supplemented with 0.1% (v/v) formic acid to 95% acetonitrile. Oxidation was monitored by an ultra high-performance liquid chromatography MS using ExionLC AD (Sciex) and SelexION (Sciex) mass spectrometer operated in a positive electrospray TOF (+ESI-TOF) mode. Instrument parameters, data acquisition and data processing were controlled by Analyst software (Sciex; https://sciex.com/products/software/analyst-software). The peptide data processing was performed using Skyline software (MacCoss Lab Software; https://skyline.ms/project/home/software/Skyline/begin.view) ([38]). All figures and parameters were generated using GraphPad Prism 9 (GraphPad; https://www.graphpad.com/features).

[2] = substrate: CC(C)C[C@H](NC(=O)CNC(=O)[C@H](C)NC(=O)[C@@H](N)CS)C(=O)N[C@@H](C)C(=O)N[C@@H](C)C(=O)N[C@@H](CC(C)C)C(=O)N1CCC[C@H]1C(=O)N[C@@H](Cc1c[nH]cn1)C(=O)N[C@@H](CO)C(=O)N[C@@H](CS)C(=O)N[C@@H](CC(C)C)C(=O)N[C@@H](CCC(=O)O)C(=O)N[C@@H](CCCNC(=N)N)C(N)=O; assay: as above; assay type: biochemical, human; conditions: other: Michaelis-Menten, stopped LC-MS assay, 37 °C, atmospheric O2; three independent experiments; pH 7.5; 37.0 °C
Experimental: as §1, §2

[3] = substrate: CC(C)C[C@H](NC(=O)[C@H](C)NC(=O)[C@H](CCCCN)NC(=O)[C@@H](N)CS)C(=O)N[C@@H](C)C(=O)N[C@@H](C)C(=O)N[C@@H](CC(C)C)C(=O)N1CCC[C@H]1C(=O)N[C@@H](Cc1c[nH]cn1)C(=O)N[C@@H](CO)C(=O)N[C@@H](CS)C(=O)N[C@@H](CC(C)C)C(=O)N[C@@H](CCC(=O)O)C(=O)N[C@@H](CCCNC(=N)N)C(N)=O; assay: as above; assay type: biochemical, human; conditions: other: Michaelis-Menten, stopped LC-MS assay, 37 °C, atmospheric O2; three independent experiments; pH 7.5; 37.0 °C
Experimental: as §1, §2

[4] = target: cobalt substituted ADO (ADO-Co^2+), biotinylated, for SPR (human) (UniProt Q96SZ5); assay: SPR; as a1, but single cycle kinetics (SCK) mode fit to a 1:1 binding model; ADO-Co^2+ immobilized
[5] = target: T1, ADO-H193D, biotinylated, for SPR (human, UniProt Q96SZ5 1-270, H193D, biotin (N terminally biotinylated)); assay: SPR; Biacore T200; biotinylated ADO immobilized on a Biotin CAP chip (∼2500 to 3000 RU), peptide/protein substrates injected; 4 °C; 20 mM Hepes pH 7.5, 500 mM NaCl, 10 mM DTT, 0.1% tween-20; 50 μl/min; multicycle, equilibrium steady state affinity 1:1 binding model; conditions: both partners purified
T1 construct: 2-aminoethanethiol (cysteamine) dioxygenase (ADO), human, UniProt Q96SZ5, full length, H193D; Mutant with impaired iron retention (reduced metal occupancy by ICP-MS); source: E. coli Rosetta2(DE3), pQE80L-Navi construct, site-directed mutagenesis, purified (Ni-NTA, SEC); not shown: biotinylation tag (from the vector pQE80L-Navi), N-terminal, kept
T1 sequence (looked up): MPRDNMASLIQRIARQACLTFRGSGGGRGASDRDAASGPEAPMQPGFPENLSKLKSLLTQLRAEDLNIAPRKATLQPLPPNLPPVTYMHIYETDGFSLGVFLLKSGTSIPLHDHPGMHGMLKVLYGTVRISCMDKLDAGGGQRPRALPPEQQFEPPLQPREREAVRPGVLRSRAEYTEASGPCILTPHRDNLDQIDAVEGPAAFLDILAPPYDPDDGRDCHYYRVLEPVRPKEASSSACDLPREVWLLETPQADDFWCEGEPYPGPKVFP

[6] = target: T2, 2-aminoethanethiol (cysteamine) dioxygenase (ADO), biotinylated, for SPR (human, UniProt Q96SZ5 1-270, biotin (N terminally biotinylated; 0.2 mM biotin added at induction)); assay: SPR; post-reconstitution with Fe2+
T2 chain: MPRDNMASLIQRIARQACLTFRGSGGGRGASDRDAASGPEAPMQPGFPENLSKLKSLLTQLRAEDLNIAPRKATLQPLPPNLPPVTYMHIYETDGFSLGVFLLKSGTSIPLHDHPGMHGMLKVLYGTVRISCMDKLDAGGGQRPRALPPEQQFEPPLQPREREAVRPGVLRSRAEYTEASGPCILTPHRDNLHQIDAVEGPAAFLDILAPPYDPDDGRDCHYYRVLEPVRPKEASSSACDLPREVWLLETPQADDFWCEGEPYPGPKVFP

[7] = target: T2, 2-aminoethanethiol (cysteamine) …; assay: SPR; post-metal removal (phenanthroline/EDTA)
[8] = target: ADO-H193D, biotinylated, for SPR (human, UniProt Q96SZ5 1-270, H193D, biotin (N terminally biotinylated)); assay: SPR
[9] = target: T2, 2-aminoethanethiol (cysteamine) …; assay: SPR; before treatment
[10] = target: T3, cobalt substituted ADO (ADO-Co^2+), biotinylated, for SPR (human, UniProt Q96SZ5 1-270, biotin (N terminally biotinylated)); assay: SPR; single cycle kinetics
T3 chain: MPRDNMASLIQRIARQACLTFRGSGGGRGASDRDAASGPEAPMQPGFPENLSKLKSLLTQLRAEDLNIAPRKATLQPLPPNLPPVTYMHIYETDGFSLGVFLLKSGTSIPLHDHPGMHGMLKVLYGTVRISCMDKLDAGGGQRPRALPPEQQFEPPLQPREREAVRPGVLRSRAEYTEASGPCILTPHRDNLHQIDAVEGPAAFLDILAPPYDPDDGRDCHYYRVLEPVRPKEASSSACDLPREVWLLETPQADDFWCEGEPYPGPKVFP

[11] = target: T2, 2-aminoethanethiol (cysteamine) …; assay: SPR

B1: ADO (Homo sapiens) (protein)
chain: MPRDNMASLIQRIARQACLTFRGSGGGRGASDRDAASGPEAPMQPGFPENLSKLKSLLTQLRAEDLNIAPRKATLQPLPPNLPPVTYMHIYETDGFSLGVFLLKSGTSIPLHDHPGMHGMLKVLYGTVRISCMDKLDAGGGQRPRALPPEQQFEPPLQPREREAVRPGVLRSRAEYTEASGPCILTPHRDNLHQIDAVEGPAAFLDILAPPYDPDDGRDCHYYRVLEPVRPKEASSSACDLPREVWLLETPQADDFWCEGEPYPGPKVFP
notes: Full-length human ADO (UniProt ID: Q96SZ5) was cloned; made in house; host or cells: Rosetta2(DE3) Escherichia coli
Km ([1]; 25 °C, 25.0 °C): 62 µM and 125 µM | kcat ([1]; 25 °C, 25.0 °C): 7 s⁻¹ and 19 s⁻¹ | kcat/Km ([1]; 25 °C, 25.0 °C): 1.1 x 10^5 s^-1M^-1 and 1.5 x 10^5 s^-1M^-1 | Km ([1]; 37 °C, 37.0 °C): 83 µM | kcat ([1]; 37 °C, 37.0 °C): 22 s⁻¹ | Km [2]: 1970 µM | kcat [2]: 100 s⁻¹ | kcat/Km [2]: 0.51 x 10^5 s^-1M^-1 | Km [3]: 33 µM | kcat [3]: 8 s⁻¹ | kcat/Km [3]: 2.4 x 10^5 s^-1M^-1

B2: native IL32 peptide (first 14 amino acids of the methionine excised N terminus of interleukin 32) (peptide, UniProt P24001 2-15, looked up)
peptide: CFPKVLSDDMKKLK
notes: interleukin 32 (IL32), first 14 amino acids of the methionine excised N terminus: residues 2-15 with the initiating methionine denoted as 1; source: synthetic peptide (SPPS, HPLC purified)
fold increase in binding affinity relative to native ADO [4]: 10 fold | fold weaker KD than with WT ADO [5]: ~77 fold

Other lines, results leading:

Kd [6]: 330 nM | Kd [7]: 320 nM | fold increase in binding affinity relative to native ADO [4]: 10 fold | Kd [8]: 3300 nM | Kd [9]: 370 nM | Kd [10]: 27 nM | fold weaker KD than with WT ADO [5]: ~13 fold
B3: native RGS5 peptide (first 14 amino acids of the methionine excised N terminus of RGS5) (peptide, UniProt O15539 2-15, looked up)
peptide: CKGLAALPHSCLER
notes: regulator of G-protein signaling 5 (RGS5), first 14 amino acids of the methionine excised N terminus: residues 2-15 with the initiating methionine denoted as 1; source: synthetic peptide (SPPS, HPLC purified)

Kd [11]: 240 nM
Binder: CKGLAALPASCLER [RGS5-H10A]
